Series [1] deals with the molecule itself. The series can be described thus: SEC. (In general: SEC sorts molecules by how far they enter the pores of the column.)
Series [2] has as its target T1, ComAC (ComA C-terminal DNA-binding domain) (Bacillus subtilis, UniProt P14204 146-214).
T1 sequence: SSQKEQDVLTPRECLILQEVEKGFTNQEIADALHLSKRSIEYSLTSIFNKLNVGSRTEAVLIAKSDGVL
Kind of series: SPR. (In general: SPR reads the build-up and loss of mass on a sensor chip optically.)

The target in series [3] is T1, ComAC (ComA C-terminal DNA-binding …). Kind of series: SPR. The source holds these as a separate data set.

The values that follow come from publication PMC2855743 (Journal of molecular biology, 2010).

Where two headings read alike, the source gives them in different places.

The term stoichiometry N denotes the number of molecules, sites or subunits per partner or assembly. The Kd is the constant that tells how readily two partners part at equilibrium. The low end stands for tighter binding, the high end for weaker binding.

B1: N-terminal domain of competence protein A (ComAN, residues 1-126) (domain or fragment, Bacillus subtilis, UniProt P14204 1-126, looked up)
chain: MKKILVIDDHPAVMEGTKTILETDSNLSVDCLSPEPSEQFIKQHDFSSYDLILMDLNLGGEVNGMELSKQILQENPHCKIIVYTGYEVEDYFEEAIRAGLHGAISKTESKEKITQYIYHVLNGEIL
As to B1, the “stoichiometry N” value in series [1] was 2.

B2: N-terminal domain of competence protein A with asparagine at position 55 (ComAN-D55N, residues 1-126) (domain or fragment, Bacillus subtilis, UniProt P14204 1-126, looked up)
chain: MKKILVIDDHPAVMEGTKTILETDSNLSVDCLSPEPSEQFIKQHDFSSYDLILMNLNLGGEVNGMELSKQILQENPHCKIIVYTGYEVEDYFEEAIRAGLHGAISKTESKEKITQYIYHVLNGEIL
In the case of B2, the “stoichiometry N” value in series [1] came to 2.

B3: Full-length competence protein A (ComAFL) (natural protein, Bacillus subtilis, UniProt P14204 1-214, looked up)
chain: MKKILVIDDHPAVMEGTKTILETDSNLSVDCLSPEPSEQFIKQHDFSSYDLILMDLNLGGEVNGMELSKQILQENPHCKIIVYTGYEVEDYFEEAIRAGLHGAISKTESKEKITQYIYHVLNGEILVDFAYFKQLMTQQKTKPAPSSQKEQDVLTPRECLILQEVEKGFTNQEIADALHLSKRSIEYSLTSIFNKLNVGSRTEAVLIAKSDGVL
With B3, the “stoichiometry N” value in series [1] stood at 2.

B4: Consensus RE1-RE3 (dsDNA)
DNA 1: TTGCGGCATCCCGCAAGAAACTTTGCGG
DNA 2: CCGCAAAGTTTCTTGCGGGATGCCGCAA
The molecule B4 had a dissociation constant Kd in series [2] of 11.3 nM.

B5: Wild type srfA (dsDNA)
DNA 1: TTTCGGCATCCCGCATGAAACTTTTCAC
DNA 2: GTGAAAAGTTTCATGCGGGATGCCGAAA
Take B5: the Kd in series [3] is 9.59 nM.

B6: Consensus RE3 (dsDNA)
DNA 1: TTTCGGCATCCCGCATGAAACTTTGCGG
DNA 2: CCGCAAAGTTTCATGCGGGATGCCGAAA
Take B6: the dissociation constant (Kd) in series [3] stood at 4.94 nM.
